{"source": "the DeepSol protein solubility set"}
{"test": "soluble on expression in E. coli; label from the status in PepcDB or PDB records"}
{"sequence": "MGSDKIHHHHHHMSIIDSQESTLYQQLAETFATAIHQGTLAPGSRLPSIRRVAGSHQVSVNTVLNAWRILEDRGLIEARPQSGYFVRGRLPSLTESKPHRAQVIVPGSEKLDLIDTVFAAQTHPDYTNISLACPQHTDFYPTEKISRIAASLLRRQPELIGRYALPPGSERLRREVARRAMDLGMTLTREDITITHGCMEALQLALRTVTQPGDCVGLETPTYFYLFPLLASLGLKTVEIPTDPQRGLSLDALELLLSENRLQAIIAMPNAQNPLGCSMTLADKKRLAKLVNDYQVPLIEDGLYSELQFTWPLSPTVKAFDREGWVIYCSSFTKTLAPDFRIGWMASGRFRAQVARLKAVSSMAESALLSETLAQFLESGGYDHHLRTLRRRYAAQMDEARGLIARHFPQGTRATQPQGGFVFWLELPGGVDGVELFHRLLQEKICVTPGELYTLSGRCKHALRLSCCYPFDERYTYALKRAGALACEMSGIGPGNEG", "soluble on expression in E. coli": "not soluble"}
{"sequence": "MGSDKIHHHHHHMSKKIIDEVIDILEDKKYTYTMIEYPEHNRKSVDIVLNSKEPTLIRVSEDKITKEEISDLKKIAVSTLTASLVVTNEEEEDIVSVKADNVFAISPEGFKKVINGEKIFLYRTRGGIFIKIRNYILKHKREEMGYSIGDVAKFLGVSRKAIYDYEKGDSDVSLEVAEKLIDLFGDDIIGDVIWDSIKSKKEILEEGVAEFSPENFKAKLIYKLKESGLNALSLKLTAADLIVKDSDNNRYLVTIENKDYNKSMKKFYEAKKLASYTKSELVIIIRTSKMLKECEDLGYKTYEENDIHSLIDEIKGSNGRQG", "soluble on expression in E. coli": "not soluble"}
{"sequence": "MGSDKIHHHHHHMSKLIVPQWPQPKGVAACSSTRIGGVSLPPYDSLNLGAHCGDNPDHVEENRKRLFAAGNLPSKPVWLEQVHGKDVLKLTGEPYASKRADASYSNTPGTVCAVMTADCLPVLFCNRAGTEVAAAHAGWRGLCAGVLEETVSCFADNPENILAWLGPAIGPRAFEVGGEVREAFMAVDAKASAAFIQHGDKYLADIYQLARQRLANVGVEQIFGGDRCTYTENETFFSYRRDKTTGRMASFIWLI", "soluble on expression in E. coli": "soluble"}
{"sequence": "MGSDKIHHHHHHMSKVIITCAVTGAIHTPSMSRYLPVTPEEIIEASVGAAEAGAAIIHLHARDPVTGKPDQSPDAFGRFLPQIKARTDAVLNITSGGSPYMTIEERIQPSMRFAPEVASLNMGSMNFALFPMLARFKEFKHAWEREALEASRDLIFRNTFKDIEYALAQCAANDTRFEFECYDVGHLYNLAHFVERGLVKAPFFVQTVFGILGGIGTHPEDVSHMKRTADRLFGNDYRWSVLGAGKDQLRLAGMSASMGGNVRVGLEDSLWLGRGTLAESNAAQVRQARQIIEGLGLEIASPNEAREILQLKGIEKVKF", "soluble on expression in E. coli": "not soluble"}
{"sequence": "MGSDKIHHHHHHMSKVVKFGGSSVANSEQFKKVKQIILADPDRKYVVTSACGKSGQEDHKVTDLLYLCAAHITYDVSYESIFQSIVDKYMEIKRSLGLKIDLAGEFAKIRQNMAQNLNLDYLVSRGEYLTGLCLAEYLDADFRDASQVIRFHYDGSIDLDKSQELLKAQVDPGRRVVIPGFYGSLPNGVIKVMSRGGSDITGSIVANAFDVDVYENWTDVSGFYVADPRIIKDPVQIPRVTYSELRQMSYMGANVLHDDAVFPVRQKNIPINVRNTNHPENPGTMIMNDCSELDAQERPHVITGITGKQDFTVITMVKSHVSAEAGFLRKVLAVFEKFQISIESVPVTVDTFSIVVQTKKIERYLYEIVAELQQDLHLDDIQVESQQAMLAVVGRAMRQMPGMSGKILSTLGDQQINIRTINQACDEQSIVIGVNNQDLVPAIKAIYQQFISEERVER", "soluble on expression in E. coli": "not soluble"}
{"sequence": "MGSDKIHHHHHHMSLASVFNIAGSGMSAQSTRLNTVASNIANAETVSSSVDKTYRARHPVFSTMFQQAQGDSGSLFADQDSSGAGVQVLGIVEDQSSLMPRYEPNHPAADANGYVYYPNVNVVEEMADMISASRAFQTNAEMMNTAKQMMQKVLTLGQ", "soluble on expression in E. coli": "not soluble"}
{"sequence": "MGSDKIHHHHHHMSLEHFFRDELTYLRLQGREFAKAHPELTRFLSEQTTDPDVERLLEGFAFLTGSLRAKIEDEFPELTHGLLGMLWPNYLRPVPSMTIMQFSVHPGAIAQPAFVARGCELDSLPIDDVVCHFQTCHDAWIYPADIREIKVQSGNDLSTITLDIGLHGPLSLSDLQLDKLRFYLGGDTYTAYELYFWIASQLSHIELEVDGQRFRQEASVLKTVGFEREDALLPYPGNVYSGYRILQEYFCFPESFLFFQLAGAVWPDLPLTVTEFRLHFCFDRPLPAELKIRPDSFMFNCVPAINLFQHDSEPINLSGRQTDYPLKASYRNADSFEIFSVDKVEGWVEGNSGRSRGIPRTYQPFESFQHQIERAKGRLALYYRIRVREAINGNGFDHMLSFVRGDEQEVIDLDESISVTLTCTNRSRAAQLSVGAICVPTGNSPSFATFRNLVRPTRPLRPAMDGSLHWTLISNLSLNYVSLLRRDALVQILRTYDFPALHDKQAEQASRKRLAGIESIETTPIDRLVQGMPVRGLKSILSVRQSAFSSEGELYLFSTVLAHFFSLYASVNAFHLLEVVNIDNKERYRWPVQIGQHSMM", "soluble on expression in E. coli": "not soluble"}
{"sequence": "MGSDKIHHHHHHMSLLINLSFILTKPTGTTTYAFNLLPHLKPLQPTLLTSQYFPNYNSYQTPVNQTSEQGIKGHLRRLRWTQFKLPKIYNNLKSSLLFSPLPEAPLYTNCRFVITSFDMIPLRFPKRFSPLIPYHRYYTPQVLKQAQHIICISQTTAEDITNFYGIPANKITPILLAYDRTHFRPLNLATRNYFLYIGRQEPYKNIQRLLAAFAALPNHKDYELWLVGPSDLRYTPTLKTQVEELSITNQVKFLDYVPYSELPKIINEAIALVFPSLWEGFGLPVLEAMACGTPVITSNLSSLPEVAGDAAILIDPYNTVEITEAMQVIATNSALRSHLSSQGIIHCQQFSWEKTAKATAEVLSRYM", "soluble on expression in E. coli": "not soluble"}
{"sequence": "MGSDKIHHHHHHMSLNSTPQSVRVHIGLFGKRNAGKSSIINAITNQSAAIVSDIAGTTTDPVFRPMEILPIGPCVLIDTAGLDDVGELGELRIGKSLDVLEKTDIALLVVDCQIGISQEDLSLIEKFNDKNIPHILILNKIDTIKNQSEILNLTKNKVKCPVVSVSSTDKIGIENLKNEIIKVLPKDSTEFKLVSDLIEPNDLVVLVVPIDKAAPKGRLILPQQQVIRDILDNGAISIVTKEDSLKETLSNLGKKPKLVITDSQVFPQVDKDTPKDIPLTSFSILFARQKGDLKELINGAYALENLKDGDKILMAEGCTHHRQTDDIGTVKIPNMIRKKTGKNITFEFSSGVSFTEDINKYALVVHCGACMMNRAGMLSRIEKAKSFNVPIVNYGVLIAYVKGILERSLELFNY", "soluble on expression in E. coli": "not soluble"}
{"sequence": "MGSDKIHHHHHHMSLSNMQVFNDYIMPATIKSLDQMIDKFNAGSAGAIVLSSEGMTGDFMRESFFASLAAAQRRVNRKGANGAASATDLSELTGSKVKIAGGFGPVRYEPSQMTWLQRPTQQGVLAASTAFAELLLQDQLNTAIAALVAALSNNAAVTNDVSGSAGMTYGAINSAHAKFGDASGQIVANVMTGTVAHKLIGDNLTNGQRLFTAGNVNVIDILGKAVIVTDAPALYEAGTPNKSKVLGLVPGAATVGNTSDIITNVETTNGKERIETTFQADYSFSLGLKGYGWDEANGGASPTDAEIATGTNWDKVAEFDKMTAGVIAVADADQ", "soluble on expression in E. coli": "not soluble"}
{"sequence": "MGSDKIHHHHHHMSLSYLQTSLDRIDAAARDDVIEICINPDGSCWGEFQGDHFMRKLDQALTATEVKDLGNQIASSANTTMSKDRPIVSVSITYKGRPIRAQVITPPAVLSAMSISLRFFSSLPLDGIALDFLYGKERKLEKLRLKKTRELREVVAAGVIDDALAFCVDNKLNMIVSGGTSTGKTVAARKILSHVPADERIVTIEEAAELLPTQPNAVTLIANRDAEFQTADVLLTATLRMRPDRIILGEVRGKEAMTFLEAINTGHGGSMTTLHAETPQLAVQRLAIAALKTEIPMTYADMIQYIENSIDVIIQAGRHDGRRGITEFYLPGATEIGVSQ", "soluble on expression in E. coli": "not soluble"}
{"sequence": "MGSDKIHHHHHHMSLTDGPYAGPPQPDVVDPSGGANQTRVRAYNERLVMSLVRRHGSLSKAEIARRSGLSAQTASVIMRSLEADGLLVRGAPVRGRVGQPSIPMRLNPDAVYSFGVKIGRRSADLVLMDFLGTIRLHLHQIHTYPLPEEIVSFIVGGIGKLEGQLGPGERGRIAGVGIATPFELWNWSEEVGAPREEMDRWRDFDLQAAVASRIRHPVFLQNDGTSACGAELAFGVGASYPDFVYFYIGSFIGGGVVINSALFSGRTGTAGAVGPLPVAGKDGKSTQLLKIASVFVLEKLLRERGIDPEPLWYSADDWIDFGEPLEIWIQDAAAALAQAVVSAVSVVDFSAAVIDGGFPPWVRARLLAATRKALQTLDLQGVTVPDLVEGTVGSHARAIGGASLPLFSRYLLDTNVLFKEL", "soluble on expression in E. coli": "not soluble"}
{"sequence": "MGSDKIHHHHHHMSLTRLNIEAFRNIQSAQLIPAPGINLIYGQNGSGKTSILEAIYFLGMGRSFRSHLSQRVINNDDDKLTLFATLNLARGDSKIGLRRFRSGETEVRIDGEKVKRLSTLAETLPIQVITPESFSLLFEGPKSRRQFIDWGAFHADPQFYGAWTNVRRVLKQRNQLLRNGSAYSNIQFWDQEFVRYAEQVTEIRNHYVDSLNELLKGIIGEFLPSVDVKVSFTRGWDSKTDFAELLENQYSRDLATGHTVSGPHKADLRLRVGTLPAQDALSRGQLKLLVCALRIAQGKLLKQQIDKHSIYLVDDLPSELDAQHRQLLLKQLTDTGAQVFVTAIDPAAIVDSLHTPPSRMFHVEQGRVTVIE", "soluble on expression in E. coli": "not soluble"}
{"sequence": "MGSDKIHHHHHHMSLVINQLSKRIDHHQTLDGISFEIGLGQIVGVVGRNGVGKTTLFRTINGQYLTDHGQVLVDGQEVVDQPEMRTQLCFIDPLANFFKGATIAQIQWYYQAAYPDFDNAKFAQLLDRYHLTSKQKLRHFSKGMFGLFTIILSVATQAPYLFLDEPLDGLDVLIRKNILGILIDEVATGNRSIVIASHNLAELEGVIDRALMLKHGRIVNDYQLEAMRRSARKVQLVYRDKQIPAVVKQLGHIVHVSGRVIVVVFEDYNAEVQAQLATTNPVFQEDLPLSLADLFMANLTDEADFELLS", "soluble on expression in E. coli": "not soluble"}
{"sequence": "MGSDKIHHHHHHMSMKISEKKFNDRVGDGIQDSFMRGAVSSAQTRLYTNRLKAADELGNWEEWRELGEEIRQHTLENLDYYLMQLSENVSKRGGHVYFAKTKEEAAKYIQDVAKKKQAKKVVKSKSMVTEEISMNHALEEIGCEVLESDLGEYILQVDNDPPSHIIAPALHKNRTQIRDVFKEKLGYENSDDPYEMTKFVRKQLREKFMDAEIGVTGCNFAVANTGSLCLVTNEGNADLVMSIPKTQIAVMGMERMVPTMEELDVLVGLLCRSAVGQKLTSYVTVAGPIQEEEVDGPEEFHLVVVDNGRSQILGSEFRQVLQCIRCAACVNVCPVYRHVGGHSYGSIYSGPIGAVLTPLLGGYDDYKELPYASSLCGACTEACPVKIPLHDLLLKHRQVIVEQEGRAPLAEKLAMKMFSMGASSAALYKMGSKMAPAAMSPFTSGNRVSKGVGPLKNWTDIREFPAPSKERFRDWYKDHKKGGDK", "soluble on expression in E. coli": "not soluble"}
{"sequence": "MGSDKIHHHHHHMSNESCKDGKIWAYLKNINVYIDQNKILSDINLNLRYGENILILGPNGSGKSTFLKLLNRSIYPITTKDSSFKLFNKENINIWDLRKKIGFLFKEMEQRVNNGVTLYDVISSGFSGIFNSKYTNLLSESKKIKINNLINTWELGDIIYNEFQTLSDGQKRRALLARALVYEPNILVLDEPFCNLDLKSNIILNQNLNELIKHSVNLIYVTHNVESILPKTNRVILIKEGKILNDGSPSELINTKTLSDLFNISIKVIEQEGYWRMIPLSS", "soluble on expression in E. coli": "not soluble"}
